According to paper PMC9468479:

Columns and labels:
[1] = target: SARS-CoV-2 wild-type Wuhan-Hu-1 spike protein (2019-nCoV spike protein) (SARS-CoV-2 (Wuhan-Hu-1)) (UniProt P0DTC2); assay: SPR
[2] = target: Wuhan-Hu-1 SARS-CoV-2 receptor binding domain (2019-nCoV spike RBD) (SARS-CoV-2 (Wuhan-Hu-1)) (UniProt P0DTC2); assay: SPR

Urtica dioica agglutinin (UDA) (natural protein)
Kd [1]: 7 nM | Kd [2]: 22 nM
